Among the data in PMC10397247 are interaction score values, retold here.

One assay addresses T1, 4H2750-AA.
T1 chain: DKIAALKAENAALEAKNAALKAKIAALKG
In words: two-hybrid library CCmax.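 Note: natural log of median RNA to DNA barcode read ratio; higher means stronger binding.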

A further assay concerns the target T2, 4H2898-AA.
T2 chain: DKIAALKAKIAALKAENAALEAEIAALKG
In words: two-hybrid library CCmax.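 Note: natural log of median RNA to DNA barcode read ratio; higher means stronger binding.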 Conditions: mean of both orientations.

A further assay has as its target T3, 4H3020-AA.
T3 chain: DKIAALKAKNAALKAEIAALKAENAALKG
The assay can be described thus: two-hybrid library CCmax.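 Note: natural log of median RNA to DNA barcode read ratio; higher means stronger binding.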 Conditions: mean of both orientations.

The next assay concerns the target T4, 4H3365-AA.
T4 chain: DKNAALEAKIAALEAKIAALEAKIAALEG
The assay can be described thus: two-hybrid library CCmax.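 Note: natural log of median RNA to DNA barcode read ratio; higher means stronger binding.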 Conditions: mean of both orientations.

The next assay has as its target T5, 4H355-AA.
T5 chain: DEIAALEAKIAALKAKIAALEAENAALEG
In words: two-hybrid library CCmax.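 Note: natural log of median RNA to DNA barcode read ratio; higher means stronger binding.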 Conditions: mean of both orientations.

The target of a further assay is T6, 4H3651-AA.
T6 chain: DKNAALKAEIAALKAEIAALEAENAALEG
The assay can be described thus: two-hybrid library CCmax.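 Note: natural log of median RNA to DNA barcode read ratio; higher means stronger binding.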 Conditions: mean of both orientations.

The next assay concerns the target T7, 4H3705-AA.
T7 chain: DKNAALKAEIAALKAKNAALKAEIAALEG
The assay can be described thus: two-hybrid library CCmax. Conditions: mean of both orientations.

The target of another assay is T8, 4H3782-AA.
T8 chain: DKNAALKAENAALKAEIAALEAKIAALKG
In words: two-hybrid library CCmax. Conditions: mean of both orientations.

In a further assay the target is T9, 4H465-AA.
T9 chain: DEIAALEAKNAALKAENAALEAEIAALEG
The assay can be described thus: two-hybrid library CCmax. Conditions: mean of both orientations.

The next assay concerns the target T10, 4H486-AA.
T10 chain: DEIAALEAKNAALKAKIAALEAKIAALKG
The assay can be described thus: two-hybrid library CCmax. Conditions: mean of both orientations.

A further assay addresses T11, 4H535-AA.
T11 chain: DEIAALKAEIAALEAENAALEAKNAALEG
In words: two-hybrid library CCmax. Conditions: mean of both orientations.

In the next assay the target is T12, 4H58-AA.
T12 chain: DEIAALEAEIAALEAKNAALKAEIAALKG
The assay can be described thus: two-hybrid library CCmax. Particulars: mean of both orientations.

A further assay concerns the target T13, 4H895-AA.
T13 chain: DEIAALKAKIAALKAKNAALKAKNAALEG
In words: two-hybrid library CCmax. Particulars: mean of both orientations.

In the next assay the target is T14, 4H_APH.
T14 chain: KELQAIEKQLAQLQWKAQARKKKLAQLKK
The assay can be described thus: two-hybrid library CCmax. Conditions: mean of both orientations.

For another assay, the target named is T15, 4H_BCR.
T15 chain: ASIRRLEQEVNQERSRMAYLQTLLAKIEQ
In words: two-hybrid library CCmax. Particulars: mean of both orientations.

In the next assay the target is 4H_GCN4. In words: two-hybrid library CCmax. Particulars: mean of both orientations.
Chain of 4H_GCN4 (chain, as listed by the source): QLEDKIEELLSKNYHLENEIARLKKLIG
The next assay deals with GCN2_T. In words: two-hybrid library CCmax.
The target in the next assay is T16, P1-AA-1HGe-A.
T16 chain: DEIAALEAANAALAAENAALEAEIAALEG
The assay can be described thus: two-hybrid library CCmax. Particulars: mean of both orientations.

In another assay the target is T17, P1-AA-1HGe-D.
T17 chain: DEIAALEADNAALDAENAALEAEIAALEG
In words: two-hybrid library CCmax. Conditions: mean of both orientations.

In a further assay the target is T18, P1-AA-1HGe-H.
T18 chain: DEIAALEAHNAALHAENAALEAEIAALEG
In words: two-hybrid library CCmax.

For the next assay, the target named is T19, P1-AA-1HGe-M.
T19 chain: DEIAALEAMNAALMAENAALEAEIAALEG
The assay can be described thus: two-hybrid library CCmax. Conditions: mean of both orientations.

The target of another assay is T20, P1-AA-1HGe-Q.
T20 chain: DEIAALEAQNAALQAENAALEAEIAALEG
The assay can be described thus: two-hybrid library CCmax. Particulars: mean of both orientations.

The target in another assay is T21, P1-AA-1HGe-R.
T21 chain: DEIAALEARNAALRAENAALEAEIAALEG
In words: two-hybrid library CCmax. Particulars: mean of both orientations.

Another assay addresses T22, P1-AA-1HGe-S.
T22 chain: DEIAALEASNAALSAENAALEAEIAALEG
In words: two-hybrid library CCmax. Conditions: mean of both orientations.

The target in a further assay is T23, P1-AA-1HGe-T.
T23 chain: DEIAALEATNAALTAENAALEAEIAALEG
The assay can be described thus: two-hybrid library CCmax. Particulars: mean of both orientations.

Another assay addresses T24, P1-AA-1HGe-W.
T24 chain: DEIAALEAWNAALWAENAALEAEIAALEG
The assay can be described thus: two-hybrid library CCmax. Particulars: mean of both orientations.

Another assay addresses T25, P1-AA-1HGe-Y.
T25 chain: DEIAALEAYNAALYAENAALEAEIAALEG
The assay can be described thus: two-hybrid library CCmax. Particulars: mean of both orientations.

Another assay deals with T26, P1-AA.
T26 chain: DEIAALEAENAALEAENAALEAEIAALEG
The assay can be described thus: two-hybrid library CCmax. Particulars: mean of both orientations.

A further assay deals with T27, 4H1193-bH.
T27 chain: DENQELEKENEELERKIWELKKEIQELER
The assay can be described thus: two-hybrid library CCNG1.

In a further assay the target is T28, 4H1328-bH.
T28 chain: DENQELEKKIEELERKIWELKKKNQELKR
In words: two-hybrid library CCNG1.

The next assay deals with T29, 4H1369-bH.
T29 chain: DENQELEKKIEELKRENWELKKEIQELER
In words: two-hybrid library CCNG1.

The target of another assay is T30, 4H1387-bH.
T30 chain: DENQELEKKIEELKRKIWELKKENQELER
In words: two-hybrid library CCNG1.

Another assay has as its target T31, 4H1406-bH.
T31 chain: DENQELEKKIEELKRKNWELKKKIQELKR
The assay can be described thus: two-hybrid library CCNG1.

For another assay, the target named is T32, 4H1446-bH.
T32 chain: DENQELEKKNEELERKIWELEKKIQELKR
The assay can be described thus: two-hybrid library CCNG1.

Another assay has as its target T33, 4H1845-bH.
T33 chain: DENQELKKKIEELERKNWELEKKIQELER
In words: two-hybrid library CCNG1.

A further assay concerns the target T34, 4H2576-bH.
T34 chain: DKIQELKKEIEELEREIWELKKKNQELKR
In words: two-hybrid library CCNG1.

The target of the next assay is T35, 4H2610-bH.
T35 chain: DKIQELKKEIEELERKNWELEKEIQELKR
In words: two-hybrid library CCNG1.

Another assay concerns the target T36, 4H2667-bH.
T36 chain: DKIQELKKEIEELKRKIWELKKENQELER
The assay can be described thus: two-hybrid library CCNG1.

A further assay addresses T37, 4H2697-bH.
T37 chain: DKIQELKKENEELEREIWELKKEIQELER
The assay can be described thus: two-hybrid library CCNG1.

In another assay the target is T38, 4H3189-bH.
T38 chain: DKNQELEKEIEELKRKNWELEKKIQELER
In words: two-hybrid library CCNG1.

Another assay addresses T39, 4H331-bH.
T39 chain: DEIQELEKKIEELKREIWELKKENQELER
In words: two-hybrid library CCNG1.

The target in a further assay is T40, 4H3592-bH.
T40 chain: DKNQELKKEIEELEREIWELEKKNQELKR
The assay can be described thus: two-hybrid library CCNG1.

The next assay concerns the target T41, 4H3601-bH.
T41 chain: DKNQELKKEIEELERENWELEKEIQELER
The assay can be described thus: two-hybrid library CCNG1.

The target in another assay is T42, 4H3606-bH.
T42 chain: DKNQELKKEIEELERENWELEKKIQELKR
The assay can be described thus: two-hybrid library CCNG1.

For another assay, the target named is T43, 4H370-bH.
T43 chain: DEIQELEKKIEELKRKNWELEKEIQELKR
The assay can be described thus: two-hybrid library CCNG1.

Another assay addresses T44, 4H3782-bH.
T44 chain: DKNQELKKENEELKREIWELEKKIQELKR
The assay can be described thus: two-hybrid library CCNG1.

In another assay the target is T45, 4H3843-bH.
T45 chain: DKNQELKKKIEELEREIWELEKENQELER
The assay can be described thus: two-hybrid library CCNG1.

The target in another assay is T46, 4H3907-bH.
T46 chain: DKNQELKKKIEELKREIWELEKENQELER
In words: two-hybrid library CCNG1.

A further assay addresses T47, 4H4001-bH.
T47 chain: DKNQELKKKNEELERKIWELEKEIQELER
In words: two-hybrid library CCNG1.

Another assay has as its target T48, 4H4038-bH.
T48 chain: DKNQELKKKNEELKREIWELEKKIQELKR
The assay can be described thus: two-hybrid library CCNG1.

Another assay addresses T49, 4H462-bH.
T49 chain: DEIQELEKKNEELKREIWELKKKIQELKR
The assay can be described thus: two-hybrid library CCNG1.

Another assay has as its target T50, 4H568-bH.
T50 chain: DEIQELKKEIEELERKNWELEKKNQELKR
The assay can be described thus: two-hybrid library CCNG1.

The next assay concerns the target T51, 4H607-bH.
T51 chain: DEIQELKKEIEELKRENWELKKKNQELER
The assay can be described thus: two-hybrid library CCNG1.

The next assay concerns the target T52, 4H687-bH.
T52 chain: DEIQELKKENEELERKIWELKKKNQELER
In words: two-hybrid library CCNG1.

Another assay has as its target T53, 4H72-bH.
T53 chain: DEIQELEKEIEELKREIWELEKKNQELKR
The assay can be described thus: two-hybrid library CCNG1.

The next assay concerns the target T54, 4H797-bH.
T54 chain: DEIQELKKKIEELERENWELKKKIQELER
The assay can be described thus: two-hybrid library CCNG1.

For a further assay, the target named is T55, 4H883-bH.
T55 chain: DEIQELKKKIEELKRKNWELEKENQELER
In words: two-hybrid library CCNG1.

The target in a further assay is T56, 4H918-bH.
T56 chain: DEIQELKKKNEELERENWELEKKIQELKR
The assay can be described thus: two-hybrid library CCNG1.

A further assay deals with T57, 4H953-bH.
T57 chain: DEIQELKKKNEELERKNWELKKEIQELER
The assay can be described thus: two-hybrid library CCNG1.

A further assay addresses T58, 4H967-bH.
T58 chain: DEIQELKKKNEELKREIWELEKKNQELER
In words: two-hybrid library CCNG1.

The next assay has as its target T59, P8A-bS.
T59 chain: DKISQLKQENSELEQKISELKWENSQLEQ
In words: two-hybrid library CCNG1.

The target in another assay is T60, Core_ININ-es_KEEK.
T60 chain: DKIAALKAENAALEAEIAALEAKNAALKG
The assay can be described thus: two-hybrid library CCmax. Conditions: mean of both orientations.

B1: 4H2750-AA (peptide)
chain: DKIAALKAENAALEAKNAALKAKIAALKG
As to B1, the interaction score with 4H2750-AA is -1.55; with 4H2898-AA it was 1.97; in the assay with 4H3020-AA, -1.5; with 4H3365-AA, -1.78; with 4H355-AA it was -0.643; with 4H3651-AA it was -1.22. Also, the interaction score is -0.91 with 4H3705-AA; -0.13 in the assay with 4H3782-AA; 2.28 in the assay with 4H465-AA; 1.13 with 4H486-AA; -1.08 with 4H535-AA; -0.465 in the assay with 4H58-AA. Further, the interaction score with 4H895-AA was -1.79; in the assay with 4H_APH, -2.38; in the assay with 4H_BCR, -1.7; with 4H_GCN4, -1.33; with GCN2_T it was -1.81; with P1-AA-1HGe-A, 2.11. Moreover, the interaction score with P1-AA-1HGe-D is 2.05; with P1-AA-1HGe-H, 1.92; with P1-AA-1HGe-M, 2.44; with P1-AA-1HGe-Q it was 2.33; with P1-AA-1HGe-R, 2.26; with P1-AA-1HGe-S, 1.86. For the same molecule, the interaction score is 2.06 with P1-AA-1HGe-T, 2.15 with P1-AA-1HGe-W, 2.03 with P1-AA-1HGe-Y and 1.56 in the assay with P1-AA.

B2: 4H1193-bH (peptide)
chain: DENQELEKENEELERKIWELKKEIQELER
As for B2, the interaction score with 4H1193-bH was -0.399; with 4H1328-bH, 0.732; in the assay with 4H1369-bH, -0.969; in the assay with 4H1387-bH, -0.684; with 4H1406-bH, -0.835; in the assay with 4H1446-bH, 0.131. The interaction score was -0.0802 in the assay with 4H1845-bH; 1.19 in the assay with 4H2576-bH; -0.0229 in the assay with 4H2610-bH; -0.964 with 4H2667-bH; -0.317 with 4H2697-bH; -0.917 in the assay with 4H3189-bH. Besides, the interaction score in the assay with 4H331-bH is -0.0475; with 4H3592-bH, 0.341; with 4H3601-bH, 0; with 4H3606-bH it was -0.559; in the assay with 4H370-bH, -0.564; with 4H3782-bH it was 1.32. Moreover, the interaction score in the assay with 4H3843-bH is 0.181; with 4H3907-bH, 0.0514; with 4H4001-bH, 0.425; in the assay with 4H4038-bH, 1.52; in the assay with 4H462-bH, -1.11; with 4H568-bH, -0.254. The interaction score with 4H607-bH is -1.7; with 4H687-bH it was -0.482; in the assay with 4H72-bH it was -0.782; in the assay with 4H797-bH, -0.528; with 4H883-bH, -0.574; with 4H918-bH, -1.33. Besides, the interaction score was -1.33 in the assay with 4H953-bH, -0.174 with 4H967-bH and 0.622 with P8A-bS.

B3: Core_ININ-es_EKKE (peptide)
chain: DEIAALEAKNAALKAKIAALKAENAALEG
Turning to B3, the interaction score with Core_ININ-es_KEEK amounted to 2.15.
